# Data as given in IntAct's records for PubMed 17699754.
# B1: DnaA initiator-associating protein DiaA (Escherichia coli (strain K12)), P66817 (parent)
# chain: MQERIKACFTESIQTQIAAAEALPDAISRAAMTLVQSLLNGNKILCCGNGTSAANAQHFAASMINRFETERPSLPAIALNTDNVVLTAIANDRLHDEVYAKQVRALGHAGDVLLAISTRGNSRDIVKAVEAAVTRDMTIVALTGYDGGELAGLLGPQDVEIRIPSHRSARIQEMHMLTVNCLCDLIDNTLFPHQDD
# partner: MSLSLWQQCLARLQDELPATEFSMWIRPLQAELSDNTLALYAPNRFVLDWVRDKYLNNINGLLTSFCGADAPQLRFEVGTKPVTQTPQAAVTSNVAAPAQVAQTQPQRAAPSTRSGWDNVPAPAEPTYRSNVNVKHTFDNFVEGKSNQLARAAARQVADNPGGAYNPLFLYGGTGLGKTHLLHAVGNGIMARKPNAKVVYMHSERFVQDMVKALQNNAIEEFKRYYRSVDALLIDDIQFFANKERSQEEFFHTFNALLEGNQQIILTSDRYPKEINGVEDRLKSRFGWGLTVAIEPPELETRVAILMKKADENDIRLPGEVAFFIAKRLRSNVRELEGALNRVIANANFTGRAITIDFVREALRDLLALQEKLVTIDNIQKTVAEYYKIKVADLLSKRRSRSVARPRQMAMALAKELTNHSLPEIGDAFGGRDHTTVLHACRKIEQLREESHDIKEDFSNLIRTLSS
# Variants of: B1
# Conditions: with dnaa_ecoli dnaA
row,Variant,effect of a mutation on the interaction
1,MQERIKACFTESIQTQIAAAEALPDAISRAAMTLVQSLLNGNKILCCGNGTSAANAQHFAASMINRFETERPSLPAIALNTDDVVLTAIANDRLHDEVYAKQVRALGHAGDVLLAISTRGNSRDIVKAVEAAVTRDMTIVALTGYDGGELAGLLGPQDVEIRIPSHRSARIQEMHMLTVNCLCDLIDNTLFPHQDD [N83D],decreasing interaction
2,MQERIKACFTESIQTQIAAAEALPDAISRAAMTLVQSLLNGNKILCCGNGTSAANAQHFAASMINRFETERPSLPAIALNTDNVVLTAIANDRLHDEVYAKQVRALGHAGDVLLAISTRGNSRDIVKAVEAAVTRDMTIVALTGYDGGELAGLLGPQDVEIRIPSHRSARIQEMHMLTVNCLCDLIDNTLLPHQDD [F191L],disrupting interaction
3,MQERIKACFTESIQTQIAAAEALPDAISRAAMTLVQSLLNGNKILCCGNGTSAANAQHFAASMINRFETERPSLPAIALNTDNVVLTAIANDRLHDEVYAKQVRALGHAGDVLLAISTRGNSRDIVKAVEAAVTRDMTIVALTGYDGGELAGLLGPQDVEIRIPSHRSARIQEMHMLTVNCLCDLIDNTLSPHQDD [F191S],disrupting interaction
4,MQERIKACFTESIQTQIAAAEALPDAISRAAMTLVQSLLNGNKILCCGNGTSAANAQHFAASMINRFETERPSLPAIALNTDNVVLTAIANDRLHDEVYAKQVRALGHAGDVLLAISTRGNSRDIVKAVEAAVTRDMTIVALTGYDGGELAGLLGPQDVEIRIPSHRSARIQEMHMLTVNCLCDLIDNTPFPHQDD [L190P],disrupting interaction
5,MQERIKACFTESIQTQIAAAEALPDAISRAAMTLVQSLLNGNKILCCGNGTSAANAQHFAASMINRFETERPSLPAIALNTDNVVLTAIANDRLHDEVYAKQVRALGHAGDVLLAISTRGNSRDIVKAVEAAVTRDMTIVALTGYDGGELAGLLGPQDVEIRIPSHRSARIQEMHMLTVNCLCDLIDNTAFPHQDD [L190A],disrupting interaction
6,MQERIKACFTESIQTQIAAAEALPDAISRAAMTLVQSLLNGNKILCCGNGTSAANAQHFAASMINRFETERSSLPAIALNTDNVVLTAIANDRLHDEVYAKQVRALGHAGDVLLAISTRGNSRDIVKAVEAAVTRDMTIVALTGYDGGELAGLLGPQDVEIRIPSHRSARIQEMHMLTVNCLCDLIDNTLFPHQDD [P72S],decreasing interaction
7,MQERIKACFTESIQTQIAAAEALPDAISRAAMTLVQSLLNGNKILCCGNGTSAANAQHFAASMINRFETERASLPAIALNTDNVVLTAIANDRLHDEVYAKQVRALGHAGDVLLAISTRGNSRDIVKAVEAAVTRDMTIVALTGYDGGELAGLLGPQDVEIRIPSHRSARIQEMHMLTVNCLCDLIDNTLFPHQDD [P72A],decreasing interaction
8,MQERIKACFTESIQTQIAAAEALPDAISRAAMTLVQSLLNGNKILCCGNGTSAANAQHFAASMINRFETERPSLPAIALNTDNVVLTAIANDRLHDEVYAEQVRALGHAGDVLLAISTRGNSRDIVKAVEAAVTRDMTIVALTGYDGGELAGLLGPQDVEIRIPSHRSARIQEMHMLTVNCLCDLIDNTLFPHQDD [K101E],decreasing interaction

# Variants of: B1
# Conditions: with dnaa_ecoli dnaA
# Remark: another data set of the same source
row,Variant,effect of a mutation on the interaction
1,MQERIKACFTESIQTQIAAAEALPDAISRAAMTLVQSLLNGNKILCCGNGTFAANAQHFAASMINRFETERPSLPAIALNTDNVVLTAIANDRLHDEVYAKQVRALGHAGDVLLAISTRGNSRDIVKAVEAAVTRDMTIVALTGYDGGELAGLLGPQDVEIRIPSHRSARIQEMHMLTVNCLCDLIDNTLFPHQDD [S52F],decreasing interaction
